This note sets out measurements from patent US20120231005A1 (Merck Sharp & Dohme, published 2012).

Residue numbers refer to the chain shown, from its start.

Assay [1] has as its target T1, human PCSK9 (human, UniProt Q8NBP7 31-692, limits assumed).
T1 construct: It carried an AlexaFluor647 label in the TR-FRET assay only; also called hPCSK9; wild type human PCSK9
As to the kind of experiment: SPR (Biacore); IgG captured on anti-human IgG, PCSK9 injected. Here is the method: (§1) The affinities of those IgG molecules were also measured by Biacore assay. Briefly, anti-human IgG monoclonal antibody form Human Antibody Capture Kit provided by Biacore was immobilized on CM5 chips at a level of 8000 to 10000 RU. […] After each round injection, the sensor chip surface was regenerated by 30 second injection of 3M Magnesium Chloride.

Assay [2] has as its target rhesus PCSK9 (rhesus). The assay is described as above.
Assay [3] deals with T1, human PCSK9. As to the kind of experiment: cell-based or functional assay.
Assay [4] deals with rhesus PCSK9 (rhesus). As to the kind of experiment: cell-based or functional assay.
The target in assay [5] is T1, human PCSK9. As to the kind of experiment: SPR (Biacore); Fab captured on anti-Fab IgG, PCSK9 injected; 1:1 Langmuir fit. As for the experimental part: First, goat anti-Fab IgGs were immobilized onto CM5 chip by amine coupling as described above. The anti-Fab IgGs were diluted to 200 μg/ml in pH 5/10 mM Acetate solution, and injected onto the NHS/EDC activated surface to achieve an immobilization level of ˜10,000 RU, followed with surface inactivation by injection of Ethanolamine. […] The sensor chip surface was regenerated by 30 second injection of 100 mM phosphoric acid. The binding sensorgrams were fitted with 1:1 Langmuir binding model to determine the binding affinity.
(In general: SPR reads the build-up and loss of mass on a sensor chip optically.)

Assay [6] concerns the target rhesus PCSK9 (rhesus). As to the kind of experiment: affinity table, IgG2 (Biacore).
The next assay concerns the target T2, mouse PCSK9 (mouse, UniProt Q80W65 35-694, limits assumed).
T2 construct: also called Mouse PCSK9 9
As to the kind of experiment: affinity table, IgG2 (Biacore). As for the experimental part: as §1

Assay [7] addresses T1, human PCSK9. As to the kind of experiment: affinity table, IgG2 (Biacore). As for the experimental part:
as §1

T1 sequence (Q8NBP7 31-692 limits assumed): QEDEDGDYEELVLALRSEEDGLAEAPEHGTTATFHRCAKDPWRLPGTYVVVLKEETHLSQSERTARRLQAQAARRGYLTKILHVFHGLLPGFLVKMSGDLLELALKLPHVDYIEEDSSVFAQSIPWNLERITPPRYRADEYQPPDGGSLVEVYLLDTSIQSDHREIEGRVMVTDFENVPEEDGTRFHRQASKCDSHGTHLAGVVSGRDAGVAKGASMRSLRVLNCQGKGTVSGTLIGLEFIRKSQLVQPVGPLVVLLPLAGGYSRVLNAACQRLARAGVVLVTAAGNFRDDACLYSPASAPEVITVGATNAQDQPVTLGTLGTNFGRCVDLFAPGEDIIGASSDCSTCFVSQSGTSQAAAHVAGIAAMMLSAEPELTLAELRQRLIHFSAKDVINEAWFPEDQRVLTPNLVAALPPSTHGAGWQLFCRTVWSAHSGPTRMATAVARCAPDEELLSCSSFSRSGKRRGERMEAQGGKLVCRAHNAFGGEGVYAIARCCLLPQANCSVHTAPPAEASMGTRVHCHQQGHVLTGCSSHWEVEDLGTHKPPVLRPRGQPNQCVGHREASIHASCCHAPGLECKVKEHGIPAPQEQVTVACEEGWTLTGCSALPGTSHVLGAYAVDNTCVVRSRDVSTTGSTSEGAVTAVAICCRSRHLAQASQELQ
T2 sequence (Q80W65 35-694 limits assumed): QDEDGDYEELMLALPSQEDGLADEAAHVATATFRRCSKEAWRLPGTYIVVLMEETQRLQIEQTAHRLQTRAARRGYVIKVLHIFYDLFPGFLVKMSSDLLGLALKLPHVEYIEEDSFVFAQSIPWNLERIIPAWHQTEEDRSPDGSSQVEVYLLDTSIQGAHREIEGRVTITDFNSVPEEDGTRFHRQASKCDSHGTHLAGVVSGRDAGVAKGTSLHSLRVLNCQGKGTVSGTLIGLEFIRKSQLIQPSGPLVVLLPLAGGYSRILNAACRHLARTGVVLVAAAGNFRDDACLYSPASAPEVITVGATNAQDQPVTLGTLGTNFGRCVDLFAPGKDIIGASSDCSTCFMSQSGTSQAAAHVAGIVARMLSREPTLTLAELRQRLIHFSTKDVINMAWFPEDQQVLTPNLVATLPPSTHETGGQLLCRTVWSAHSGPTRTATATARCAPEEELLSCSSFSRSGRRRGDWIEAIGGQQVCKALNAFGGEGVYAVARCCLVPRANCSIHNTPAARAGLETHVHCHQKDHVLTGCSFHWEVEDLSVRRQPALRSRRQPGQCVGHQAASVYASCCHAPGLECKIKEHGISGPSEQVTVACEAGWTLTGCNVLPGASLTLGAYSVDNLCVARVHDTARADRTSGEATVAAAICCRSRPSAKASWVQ

B1: AX188 IgG2 (antibody, V domains shown)
VH: EVQLLESGGGLVQPGGSLRLSCKASGYTFSSYWMHWVRQAPGKGLEWIGRIDPYNGGTKYNEKFKGKATISRDNSKNTLYLQMNSLRAEDTAVYYCARYGYYLGSYAMDYWGQGTLVTVSS
VL: DIQMTQSPSSLSASVGDRVTITCRASQSVSRYLAWYQQKPGKAPKLLIYAASSLQSGVPSRFSGSGSGTDFTLTISSLQPEDFATYYCEAYDYSSGPWVFGGGTKVEIKR
notes: IgG2
Usually Kd stands for a measure of binding affinity in units of concentration. A higher Kd goes with weaker binding. Take B1: the results for the Kd with human PCSK9 [1] and in the assay with rhesus PCSK9 (rhesus) [2] were 0.873 nM and 0.454 nM, respectively. Besides, the “IgG IC50 (nM), inhibition of PCSK9 on LDL uptake (Exopolar assay)” value (shortened to “IgG IC50 (nM), inhibition of PCSK9”) came to 24.8 nM in the assay with human PCSK9 [3] and 18.7 nM with rhesus PCSK9 (rhesus) [4].

B2: AX1 Fab (Fab, V domains shown)
VH: EVQLLESGGGLVQPGGSLRLSCKASGFTFTSYYMHWVRQAPGKGLEWIGRINPDSGSTKYNEKFKGRATISRDNSKNTLYLQMNSLRAEDTAVYYCARGGRLSWDFDVWGQGTLVTVSS
VL: B1 VL with S28D, V29I, E89A, S95L, P97G, W98Y, G102D
notes: Soluble Fab from E. coli TG1 periplasm; Tags encoded by the display vector are not described for the protein
B2: the “Fab IC50 (nM), inhibition of PCSK9 on LDL uptake (Exopolar assay)” value (from here on “Fab IC50 (nM), inhibition of PCSK9”) in the assay with human PCSK9 [3] came out at 146 nM. Moreover, the Kd in the assay with human PCSK9 [5] worked out at 6 nM.

B3: AX9 Fab (Fab, V domains shown)
VH: B1 VH
VL: B1 VL with S28D, R31K, E89Q, A90V, Y93S, S95P, G96N, P97A, W98Y
Regarding B3, the “Fab IC50 (nM), inhibition of PCSK9” value with human PCSK9 [3] amounted to 287 nM. The same molecule registered a Kd in the assay with human PCSK9 [5] of 23.9 nM.

B4: AX422 Fab (Fab, V domains shown)
VH: B1 VH with N55S
VL: DIQMTQSPSSLSASVGDRVTITCRASQDVSRYLTWYQQKPGKAPKLLIYAASSLQSGVPSRFSGSGSGTDFTLTISSLQPEDFATYYCQAYDYSLSGYVFGGGTKVEIK
notes: also called AX189_VH 55N to S
As to B4, in the assay with human PCSK9 [5], the dissociation constant Kd turned out to be 4.1 nM.

B5: AX195 Fab (Fab, V domains shown)
VH: B1 VH
VL: B4 VL with D28A, R31K, T34A, S96G, G97D
In turn, B5 showed a Kd with human PCSK9 [5] of 9.9 nM.

B6: AX200 Fab (Fab, V domains shown)
VH: B1 VH
VL: B4 VL with R31K, T34A, Q89E, G97H
As for B6, in the assay with human PCSK9 [5], the dissociation constant Kd was 9.6 nM.

B7: AX422 IgG2 (antibody, V domains shown)
VH: B1 VH with N55S
VL: B1 VL with S28D, A34T, E89Q, S95L, G96S, P97G, W98Y
notes: also called AX422 (55N to S)
On to B7, for which the equilibrium dissociation constant (Kd) with human PCSK9 [1] came to 2.12 nM; with rhesus PCSK9 (rhesus) [2] it was 1.96 nM. In the assay with human PCSK9 [3], the “IgG IC50 (nM), inhibition of PCSK9” value turned out to be 5 nM.

B8: AX424 IgG2 (antibody, V domains shown)
VH: B1 VH with N55T
VL: B1 VL with S28D, A34T, E89Q, S95L, G96S, P97G, W98Y
notes: also called AX424 (55N to T)
For the molecule B8, the values for the Kd with human PCSK9 [1] and with rhesus PCSK9 (rhesus) [2] were 2.16 nM and 2.36 nM, respectively. In the assay with human PCSK9 [3], the “IgG IC50 (nM), inhibition of PCSK9” value came out at 6 nM.

B9: AX198 Fab (Fab, V domains shown)
VH: B1 VH
VL: B4 VL with D28A, R31S, T34N, Q89E, S96G, Y98W
As to B9, the affinity with human PCSK9 [5], expressed as Kd, was 4.3 nM.

B10: AX194 Fab (Fab, V domains shown)
VH: B1 VH
VL: B4 VL with I21T, D28A, S96G, G97A
Take B10: the Kd in the assay with human PCSK9 [5] was determined as 6.1 nM.

B11: AX421 Fab (Fab, V domains shown)
VH: B1 VH with G56E
VL: B4 VL
notes: also called AX189_VH 56G to E
Regarding B11, the affinity with human PCSK9 [5], expressed as Kd, was 6.7 nM.

B12: AX193 Fab (Fab, V domains shown)
VH: B1 VH
VL: B4 VL with D28A, V29I, R31K, T34N, Q89E, A90S, S96G, G97R
With B12, the Kd in the assay with human PCSK9 [5] is 7 nM.

B13: AX424 Fab (Fab, V domains shown)
VH: B1 VH with N55T
VL: B4 VL
notes: also called AX189_VH 55N to T
Molecule B13 came in with a dissociation constant Kd with human PCSK9 [5] of 4.2 nM.

B14: AX423 Fab (Fab, V domains shown)
VH: B1 VH with G56T
VL: B4 VL
notes: also called AX189_VH 56G to T
In the assay with human PCSK9 [5], B14 had a dissociation constant Kd of 32.8 nM.

B15: AX189 Fab (Fab, V domains shown)
VH: B1 VH
VL: B1 VL with S28D, A34T, E89Q, S95L, G96S, P97G, W98Y
notes: The heavy chain is the Fd chain
Regarding B15, the “Fab IC50 (nM), inhibition of PCSK9” value in the assay with human PCSK9 [3] was found to be 31 nM. In the assay with human PCSK9 [5], the Kd turned out to be 6.3 nM.

B16: AX191 Fab (Fab, V domains shown)
VH: B1 VH
VL: B4 VL with V29I, R31K, T34A, L95S, G97A
On to B16, for which the “Fab IC50 (nM), inhibition of PCSK9” value with human PCSK9 [3] amounted to 13 nM. The molecule also displayed a Kd with human PCSK9 [5] of 5.2 nM.

B17: AX196 Fab (Fab, V domains shown)
VH: B1 VH
VL: B4 VL with M4I, T34A, Q89E, A90S, G97H
In the assay with human PCSK9 [5], B17 showed a Kd of 18.3 nM.

B18: AX425 Fab (Fab, V domains shown)
VH: B1 VH with N55D
VL: B4 VL
notes: also called AX189_VH 55N to D
In the assay with human PCSK9 [5], B18 showed a Kd of 17.6 nM.

B19: AX199 Fab (Fab, V domains shown)
VH: B1 VH
VL: B4 VL with D28S, R31N, T34H, S96G, G97P
Turning to B19, binding with human PCSK9 [5] was put at a Kd of 26.2 nM.

B20: AX197 Fab (Fab, V domains shown)
VH: B1 VH
VL: B4 VL with D28A, V29I, T34A, S96G, G97H
The molecule B20 showed a Kd with human PCSK9 [5] of 5.6 nM.

B21: AX114 IgG2 (antibody, V domains shown)
VH: EVQLLESGGGLVQPGGSLRLSCKASGYTFSSYGMYWVRQAPGKGLEWIGWIDPGSGGTKYNEKFKGKATISRDNSKNTLYLQMNSLRAEDTAVYYCARERYGYYFDYWGQGTLVTVSS
VL: EIVLTQSPATLSLSPGERATITCRASQYVGTYLNWYQQKPGQAPRLLIYDASNRATGIPARFSGSGSGTDFTLTISSLEPEDFAVYYCQVWDSSPPVAFGGGTKVEIK
In the case of B21, the results for the dissociation constant Kd in the assay with rhesus PCSK9 (rhesus) [6], with mouse PCSK9 and with human PCSK9 [7] were 11.6 nM, 11.2 nM and 24 nM, respectively.

B22: AX132 IgG2 (antibody, from another filing, V domains shown)
VH: B21 VH
VL: EIVLTQSPATLSLSPGERATITCRASQYVGSYLNWYQQKPGQAPRLLIYDASNRATGIPARFSGSGSGTDFTLTISSLEPEDFAVYYCQVWDSSPPVVFGGGTKVEIKR
Turning to B22, the Kd in the assay with rhesus PCSK9 (rhesus) [6] came out at 2.59 nM.
